Data: US20140242093A1, “METHODS AND COMPOSITIONS FOR MODULATING THE INNATE IMMUNE RESPONSE AND/OR MYOGENESIS IN A MAMMALIAN SUBJECT” (FRED HUTCHINSON CANCER RESEARCH CENTER, priority 2011, published 2014)

Test system: control human primary myoblasts
Assay: Expression microarray of primary myoblasts transduced with lentivirus carrying DUX4-fl, DUX4-s or GFP
Method: Primary human myoblasts were collected and cultured as previously described (Snider et al., 2010). Primary myoblasts were maintained at or below 70% confluency for proliferation. For differentiation, cells were allowed to reach 95-100% confluency in growth medium. Once confluency was reached, the cells were changed to differentiation medium (F10 media supplemented with 1% horse serum, 10 μg/mL insulin, and 10 μg/mL transferrin, penicillin/streptomycin) and maintained for 4 days. Human RD cells were grown in DMEM in 10% bovine calf serum (Hyclone) and penicillin/streptomycin. The primary myoblasts were transduced with lentivirus carrying DUX-fl, DUX4- or GFP (MOI=15).
Expression microarrays were performed on the transduced cells at 24 hours after transduction as follows. […] Samples were analyzed by Illumina Human Whole Genome microarrays. Probe intensities were corrected, normalized, and summarized by the Lumi package of Bioconductor (Du et al., 2008). Differentially expressed genes were identified by the LIMMA package of Bioconductor (Wettenhall and Smyth, 2004). Gene set enrichment analysis (GSEA) was performed using the Bioconductor GOstats package (Falcon and Gentleman, 2007).

B1: DUX4-s: short splice form of DUX4 (SEQ ID NO:112), keeps the double-homeobox domains, lacks the C-terminal activation domain (protein, listed as Homo sapiens)
chain: MALPTPSDSTLPAEARGRGRRRRLVWTPSQSEALRACFERNPYPGIATRERLAQAIGIPEPRVQIWFQNERSRQLRQHRRESRPWPGRRGPPEGRRKRTAVTGSQTALLLRAFEKDRFPGIAAREELARETGLPESRIQIWFQNRRARHPGQGGRAPAQV
- PNMA6B expression fc (Refseq XM_001721351.1): −0.2189
- LOC100133984 expression fc (Refseq XM_001723079.1): −0.03265
- LOC649330 expression fc (Refseq XM_001723218.1): −0.2697
- LOC100128202 expression fc (Refseq XM_001723719.1): −0.1157
- LOC100130311 expression fc (Refseq XM_001724111.1): 0.1436
- LOC100131539 expression fc (Refseq XM_001724873.1): 0.06524
- LOC100134006 expression fc (Refseq XM_001725030.1): −0.02089
- LOC730167 expression fc (Refseq XM_001726158.1): 1.257
- LOC100129681 expression fc (Refseq XM_001726834.1, cultured human skeletal muscle): 0.5189
- LOC651709 expression fc (Refseq XM_001732813.1): 0.09445
- LOC727828 expression fc (Refseq XR_015137.1): −0.00556
- LOC728060 fc (Refseq XR_015272.2): 0.2553
- LOC732393 expression fc (Refseq XR_015873.1): 0.03683
- MGC40489 expression fc (Refseq XR_016048.1): −0.4604
- LOC643263 expression fc (Refseq XR_016355.1): −0.133
- LOC441081 expression fc (Refseq XR_017029.1): 0.06023
- LOC647366 expression fc (Refseq XR_018122.1): −0.003339
- LOC440041 expression fc (Refseq XR_018122.2): 0.021
- LOC647827 expression fc (Refseq XR_018213.1): −0.05208
- LOC399988 expression fc (Refseq XR_018287.2): −0.4131
- LOC650215 fc (Refseq XR_018889.1): 0.6386
- fc of RBMS2P (expression array) (Refseq XR_019556.2): 1.313
- LOC642148 expression fc (Refseq XR_019607.1): 0.1352
- LOC650236 expression fc (Refseq XR_036872.1): −0.05945
- LOC100134322 expression fc (Refseq XR_037416.1): 0.1962
- LOC730974 expression fc (Refseq XR_037751.1): 0.02384
- LOC643445 expression fc (Refseq XR_038080.1): 0.07882
- LOC729516 expression fc (Refseq XR_038445.1): −0.00369
- LOC340970 expression fc (Refseq XR_038494.1): 0.03296
- LOC645381 expression fc (Refseq XR_038557.1): −0.1266
- LOC728429 expression fc (Refseq XR_038921.1): −0.02834
- LOC645638 fc (Refseq XR_040455.1): −0.07113
- LOC400464 expression fc (Refseq XR_041115.1): −0.07853
- TRIM53 expression fc (Refseq XR_041244.1): 0.07913
- LOC729009 expression fc (Refseq XR_042330.1, cultured human skeletal muscle): 0.6634
- ABCC3 expression fc (cultured human skeletal muscle): 0.1349
- ADM expression fc (cultured human skeletal muscle): 0.6367
- AGTRAP expression fc (cultured human skeletal muscle): 0.6152
- AHNAK expression fc (cultured human skeletal muscle): 0.163
- ANGPTL2 expression fc (cultured human skeletal muscle): −0.7837
- ANKFY1 expression fc (cultured human skeletal muscle): 0.09409
- APOL3 expression fc (cultured human skeletal muscle): 0.9777
- ARHGEF19 expression fc (cultured human skeletal muscle): 0.1103
- ARID3A expression fc (cultured human skeletal muscle): 0.2867
- ASNS expression fc (cultured human skeletal muscle): 0.7133
- ATF5 expression fc (cultured human skeletal muscle): 0.5025
- ATL3 expression fc (cultured human skeletal muscle): 1.352
- BHLHB2 expression fc (cultured human skeletal muscle): 0.6222
- BTG2 expression fc (cultured human skeletal muscle): −0.1242
- BTN3A2 expression fc (cultured human skeletal muscle): 0.3356
- BTN3A3 expression fc (cultured human skeletal muscle): 0.4019
- C1RL expression fc (cultured human skeletal muscle): −0.1589
- C4orf18 expression fc (cultured human skeletal muscle): −0.5109
- C8orf13 expression fc (cultured human skeletal muscle): 0.4235
- C14orf4 expression fc (cultured human skeletal muscle): 0.05349
- C18orf56 expression fc (cultured human skeletal muscle): 0.2126
- CA9 expression fc (cultured human skeletal muscle): 0.5237
- CABC1 expression fc (cultured human skeletal muscle): −0.1757
- CABYR expression fc (cultured human skeletal muscle): −0.04313
- CCDC8 expression fc (cultured human skeletal muscle): −0.09225
- CEBPD expression fc (cultured human skeletal muscle): 0.1596
- CLDN15 expression fc (cultured human skeletal muscle): −0.3718
- CNTNAP1 expression fc (cultured human skeletal muscle): 0.1486
- COL8A1 expression fc (cultured human skeletal muscle): 0.469
- CRISPLD2 expression fc (cultured human skeletal muscle): −0.45
- CSF3 expression fc (cultured human skeletal muscle): 0.8126
- CYGB expression fc (cultured human skeletal muscle): 0.157
- CYP26B1 expression fc (cultured human skeletal muscle): 0.4149
- CYP27A1 expression fc (cultured human skeletal muscle): −0.0598
- DAB2 expression fc (cultured human skeletal muscle): 0.1092
- DCN expression fc (cultured human skeletal muscle): 0.2641
- DDB2 expression fc (cultured human skeletal muscle): 0.1073
- DDIT4 expression fc (cultured human skeletal muscle): 0.346
- DDX60L expression fc (cultured human skeletal muscle): 0.6578
- DKFZp451A211 expression fc (cultured human skeletal muscle): 0.3087
- DNAJB2 expression fc (cultured human skeletal muscle): −0.01635
- DUSP10 expression fc (cultured human skeletal muscle): −0.3659
- ERAP2 expression fc (cultured human skeletal muscle): 0.7658
- ESPNL expression fc (cultured human skeletal muscle): −0.2957
- FADS1 expression fc (cultured human skeletal muscle): 0.4186
- FAM110B expression fc (cultured human skeletal muscle): −0.7651
- FAM175A expression fc (cultured human skeletal muscle): 0.2667
- FHL2 expression fc (cultured human skeletal muscle): −0.08794
- FILIP1L expression fc (cultured human skeletal muscle): 0.06528
- FKBP5 expression fc (cultured human skeletal muscle): −0.1027
- FOXQ1 expression fc (cultured human skeletal muscle): 0.6403
- FPR1 expression fc (cultured human skeletal muscle): 0.9327
- FST expression fc (cultured human skeletal muscle): 0.9107
- FUCA1 expression fc (cultured human skeletal muscle): 0.2909
- GALK1 expression fc (cultured human skeletal muscle): −0.5288
- GALNTL2 expression fc (cultured human skeletal muscle): 0.9881
- GAS1 expression fc (cultured human skeletal muscle): 0.007049
- GBP4 expression fc (cultured human skeletal muscle): 2.337
- GFPT2 expression fc (cultured human skeletal muscle): 0.04945
- GPX8 expression fc (cultured human skeletal muscle): −0.3321
- GRINA expression fc (cultured human skeletal muscle): 0.4683
- GSDMD expression fc (cultured human skeletal muscle): 0.5738
- HAS2 expression fc (cultured human skeletal muscle): 0.691
- HCG4 expression fc (cultured human skeletal muscle): 0.6838
- HES4 expression fc (cultured human skeletal muscle): 1.068
- HLA-C expression fc (cultured human skeletal muscle): 0.6015
- HLA-H expression fc (cultured human skeletal muscle): 0.327
- HOXC6 expression fc (cultured human skeletal muscle): −0.1927
- ID3 expression fc (cultured human skeletal muscle): −0.07117
- IDH3B expression fc (cultured human skeletal muscle): 0.07117
- IFIT5 expression fc (cultured human skeletal muscle): −0.2831
- IFITM2 expression fc (cultured human skeletal muscle): 0.006726
- IGFBP5 expression fc (cultured human skeletal muscle): 0.178
- IHPK3 expression fc (cultured human skeletal muscle): −0.09089
- IL32 expression fc (cultured human skeletal muscle): 0.06112
- IMPA2 expression fc (cultured human skeletal muscle): −0.3411
- IRAK2 expression fc (cultured human skeletal muscle): 0.5116
- IRAK3 expression fc (cultured human skeletal muscle): 1.053
- ISCU expression fc (cultured human skeletal muscle): 0.03975
- ITPRIP expression fc (cultured human skeletal muscle): 0.5516
- KIAA1618 expression fc (cultured human skeletal muscle): −0.2961
- KLF6 expression fc (cultured human skeletal muscle): 0.6419
- KRT17 expression fc (cultured human skeletal muscle): 0.4585
- LAP3 expression fc (cultured human skeletal muscle): 1.402
- LIMA1 expression fc (cultured human skeletal muscle): 0.2565
- LOC387763 expression fc (cultured human skeletal muscle): 0.2048
- LOC389386 expression fc (cultured human skeletal muscle): 1.37
- LOC392437 expression fc (cultured human skeletal muscle): 0.113
- LOC653879 expression fc (cultured human skeletal muscle): 0.3261
- LOC728431 expression fc (cultured human skeletal muscle): 0.4549
- MAMDC2 expression fc (cultured human skeletal muscle): −0.02851
- MAOA expression fc (cultured human skeletal muscle): −0.3759
- MCEE expression fc (cultured human skeletal muscle): −0.341
- MGC16121 expression fc (cultured human skeletal muscle): 0.01304
- MIOS expression fc (cultured human skeletal muscle): 0.1238
- MLPH expression fc (cultured human skeletal muscle): 0.4233
- MMP3 expression fc (cultured human skeletal muscle): 0.2839
- MOCOS expression fc (cultured human skeletal muscle): 0.4177
- MOV10 expression fc (cultured human skeletal muscle): 0.6869
- MSC expression fc (cultured human skeletal muscle): 0.2529
- MSI2 expression fc (cultured human skeletal muscle): 1.327
- MT1A expression fc (cultured human skeletal muscle): −0.1212
- MT2A expression fc (cultured human skeletal muscle): 0.08469
- MUC1 expression fc (cultured human skeletal muscle): 0.3508
